Test results reported in the Human Domainome abundance scans (Beltran et al. 2025).
± gives the uncertainty stated by the source.

B1: Tumor protein 63, residues 545 to 610; numbered along this chain, Q9H3D4 (parent)
chain: TDCSIVSFLARLGCSSCLDYFTTQGLTTIYQIEHYSMDDLASLKIPEQFRHAIWKGILDHRQLHEF

Variants of: B1
Assay: abundance fitness (aPCA) (normalised: wild type 0, dead -1); higher = more abundant; growth selection in yeast, the domain comes from the species named
Conditions: Homo sapiens

For A52I, which abundance fitness is on record?
Its abundance fitness is -0.062 ± 0.052.

For V6W, which abundance fitness is on record?
The abundance fitness was -0.073 ± 0.027.

With F21D as the variant, how does the abundance fitness read?
Its abundance fitness is -1.03 ± 0.12.

For S16R, which abundance fitness is on record?
Its abundance fitness is -0.092 ± 0.024.

Which abundance fitness does the source give for Q62V here?
Its abundance fitness is -0.051 ± 0.025.

For L63K, which abundance fitness is on record?
The abundance fitness was -0.004 ± 0.052.

With R11N as the variant, how does the abundance fitness read?
The abundance fitness was -0.093 ± 0.037.

Which abundance fitness does the source give for E47P here?
Its abundance fitness is -0.009 ± 0.028.

Which abundance fitness does the source give for H34V here?
Its abundance fitness is -0.27 ± 0.027.

Which abundance fitness does the source give for Y30D here?
The abundance fitness was 0.009 ± 0.044.

With E47C as the variant, how does the abundance fitness read?
The abundance fitness was -0.076 ± 0.052.

For R61N, which abundance fitness is on record?
The abundance fitness was -0.05 ± 0.049.

For C17S, which abundance fitness is on record?
The abundance fitness was -0.164 ± 0.018.

With W54T as the variant, how does the abundance fitness read?
The abundance fitness was -0.102 ± 0.26.

Which abundance fitness does the source give for H60K here?
The abundance fitness was -0.064 ± 0.03.

With K44I as the variant, how does the abundance fitness read?
The abundance fitness was -0.4 ± 0.045.

With I57T as the variant, how does the abundance fitness read?
The abundance fitness was -0.323 ± 0.025.

With G25S as the variant, how does the abundance fitness read?
The abundance fitness was -0.062 ± 0.019.

With I45V as the variant, how does the abundance fitness read?
The abundance fitness was -0.021 ± 0.023.

With P46D as the variant, how does the abundance fitness read?
The abundance fitness was -0.283 ± 0.054.

Which abundance fitness does the source give for F66A here?
The abundance fitness was 0.05 ± 0.12.

For I57M, which abundance fitness is on record?
Its abundance fitness is -0.105 ± 0.03.

With T1Y as the variant, how does the abundance fitness read?
Its abundance fitness is -0.074 ± 0.046.

With G13E as the variant, how does the abundance fitness read?
The abundance fitness was -0.071 ± 0.04.

With C14K as the variant, how does the abundance fitness read?
The abundance fitness was -0.125 ± 0.03.

For A41S, which abundance fitness is on record?
Its abundance fitness is -0.04 ± 0.033.

With T1C as the variant, how does the abundance fitness read?
The abundance fitness was -0.063 ± 0.033.

With S16P as the variant, how does the abundance fitness read?
Its abundance fitness is -0.006 ± 0.045.

Which abundance fitness does the source give for Q48T here?
Its abundance fitness is -0.023 ± 0.034.

Which abundance fitness does the source give for T23Q here?
The abundance fitness was 0 ± 0.036.

Which abundance fitness does the source give for T23I here?
The abundance fitness was -0.072 ± 0.034.

Which abundance fitness does the source give for L40W here?
Its abundance fitness is -0.764 ± 0.047.

For L58M, which abundance fitness is on record?
The abundance fitness was -0.06 ± 0.043.

Which abundance fitness does the source give for T22G here?
The abundance fitness was -0.1 ± 0.023.

With D59H as the variant, how does the abundance fitness read?
Its abundance fitness is -0.024 ± 0.055.

With I57A as the variant, how does the abundance fitness read?
Its abundance fitness is -0.369 ± 0.03.

For R50M, which abundance fitness is on record?
The abundance fitness was -0.002 ± 0.029.

With K44V as the variant, how does the abundance fitness read?
The abundance fitness was -0.23 ± 0.026.

With K55S as the variant, how does the abundance fitness read?
Its abundance fitness is -0.057 ± 0.026.

With L9T as the variant, how does the abundance fitness read?
The abundance fitness was -1.04 ± 0.1.

For S4W, which abundance fitness is on record?
Its abundance fitness is -0.224 ± 0.028.

For Y35R, which abundance fitness is on record?
The abundance fitness was -0.48 ± 0.021.

Which abundance fitness does the source give for G25I here?
The abundance fitness was -1 ± 0.14.

Which abundance fitness does the source give for L40P here?
Its abundance fitness is -0.893 ± 0.062.

With V6M as the variant, how does the abundance fitness read?
The abundance fitness was -0.017 ± 0.027.

Which abundance fitness does the source give for K55R here?
The abundance fitness was -0.059 ± 0.02.

For S15H, which abundance fitness is on record?
The abundance fitness was -0.031 ± 0.038.

For L18R, which abundance fitness is on record?
The abundance fitness was -0.072 ± 0.027.

For L9E, which abundance fitness is on record?
The abundance fitness was -0.666 ± 0.054.

With G56Y as the variant, how does the abundance fitness read?
The abundance fitness was -0.505 ± 0.036.

For L18P, which abundance fitness is on record?
Its abundance fitness is -0.551 ± 0.034.

For T28V, which abundance fitness is on record?
Its abundance fitness is -0.1 ± 0.023.

With R50H as the variant, how does the abundance fitness read?
The abundance fitness was -0.03 ± 0.084.

With T27N as the variant, how does the abundance fitness read?
The abundance fitness was -0.024 ± 0.028.

With L9C as the variant, how does the abundance fitness read?
Its abundance fitness is -0.344 ± 0.06.

For F49P, which abundance fitness is on record?
Its abundance fitness is -0.061 ± 0.033.

With T27L as the variant, how does the abundance fitness read?
Its abundance fitness is -0.084 ± 0.022.

Which abundance fitness does the source give for I32W here?
Its abundance fitness is -0.898 ± 0.051.

For Q24P, which abundance fitness is on record?
The abundance fitness was -0.21 ± 0.033.

With E33G as the variant, how does the abundance fitness read?
Its abundance fitness is -0.074 ± 0.019.

With L12G as the variant, how does the abundance fitness read?
Its abundance fitness is -0.648 ± 0.032.

With D39S as the variant, how does the abundance fitness read?
Its abundance fitness is -0.143 ± 0.029.

With K44R as the variant, how does the abundance fitness read?
The abundance fitness was -0.014 ± 0.02.

With K44M as the variant, how does the abundance fitness read?
The abundance fitness was -0.039 ± 0.033.

With L58R as the variant, how does the abundance fitness read?
The abundance fitness was 0.006 ± 0.024.

Which abundance fitness does the source give for I53D here?
Its abundance fitness is -0.907 ± 0.14.

With L9I as the variant, how does the abundance fitness read?
Its abundance fitness is -0.421 ± 0.059.

With C3A as the variant, how does the abundance fitness read?
Its abundance fitness is -0.098 ± 0.021.

Which abundance fitness does the source give for C3M here?
Its abundance fitness is -0.005 ± 0.025.

For Q48W, which abundance fitness is on record?
Its abundance fitness is -0.203 ± 0.037.

For S16K, which abundance fitness is on record?
The abundance fitness was -0.12 ± 0.03.

For K55C, which abundance fitness is on record?
The abundance fitness was -0.041 ± 0.035.

For Q62N, which abundance fitness is on record?
The abundance fitness was -0.056 ± 0.039.

Which abundance fitness does the source give for G13L here?
The abundance fitness was -0.438 ± 0.029.

For C17F, which abundance fitness is on record?
The abundance fitness was -0.299 ± 0.033.

With Q24S as the variant, how does the abundance fitness read?
The abundance fitness was -0.037 ± 0.024.

For S7M, which abundance fitness is on record?
The abundance fitness was -0.108 ± 0.036.

Which abundance fitness does the source give for L43V here?
Its abundance fitness is -0.134 ± 0.024.

With K55F as the variant, how does the abundance fitness read?
Its abundance fitness is -0.212 ± 0.049.

For D2F, which abundance fitness is on record?
The abundance fitness was -0.184 ± 0.088.

Which abundance fitness does the source give for I53S here?
The abundance fitness was -0.918 ± 0.057.

Which abundance fitness does the source give for H34L here?
The abundance fitness was -0.106 ± 0.023.

Which abundance fitness does the source give for Y20R here?
Its abundance fitness is -0.043 ± 0.022.

With I32R as the variant, how does the abundance fitness read?
Its abundance fitness is -1.01 ± 0.06.
